Reference: PMC10397247

How the values were obtained:
Experiment in all cases: two-hybrid library CCNG1;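 further: natural log of median RNA to DNA barcode read ratio; higher means stronger binding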
4H1985-bA = target: T1, 4H1985-bA
T1 chain: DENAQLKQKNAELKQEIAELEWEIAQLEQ

4H584-bA = target: T2, 4H584-bA
T2 chain: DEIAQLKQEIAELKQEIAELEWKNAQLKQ

4H1804-bA = target: T3, 4H1804-bA
T3 chain: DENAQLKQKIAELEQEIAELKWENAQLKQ

4H3297-bH = target: T4, 4H3297-bH
T4 chain: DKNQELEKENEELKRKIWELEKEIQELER

4H570-bA = target: T5, 4H570-bA
T5 chain: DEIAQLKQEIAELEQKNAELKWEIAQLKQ

4H3129-bA = target: T6, 4H3129-bA
T6 chain: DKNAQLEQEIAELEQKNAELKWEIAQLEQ

4H3817-bA = target: T7, 4H3817-bA
T7 chain: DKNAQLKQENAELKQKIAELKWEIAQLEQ

4H906-bA = target: T8, 4H906-bA
T8 chain: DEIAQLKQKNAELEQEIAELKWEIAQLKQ

4H3631-bA = target: T9, 4H3631-bA
T9 chain: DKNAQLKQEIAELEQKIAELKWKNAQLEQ

4H1629-bA = target: T10, 4H1629-bA
T10 chain: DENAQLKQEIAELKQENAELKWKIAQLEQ

4H3638-bA = target: T11, 4H3638-bA
T11 chain: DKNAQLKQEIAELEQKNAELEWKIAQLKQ

4H619-bA = target: T12, 4H619-bA
T12 chain: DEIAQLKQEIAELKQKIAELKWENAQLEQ

4H1449-bA = target: T13, 4H1449-bA
T13 chain: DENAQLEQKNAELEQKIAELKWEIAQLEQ

4H754-bA = target: T14, 4H754-bA
T14 chain: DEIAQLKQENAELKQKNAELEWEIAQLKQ

4H3414-bA = target: T15, 4H3414-bA
T15 chain: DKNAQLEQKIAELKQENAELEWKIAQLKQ

4H1393-bA = target: T16, 4H1393-bA
T16 chain: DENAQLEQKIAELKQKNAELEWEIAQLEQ

4H1710-bA = target: T17, 4H1710-bA
T17 chain: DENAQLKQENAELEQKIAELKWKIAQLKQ

4H3172-bA = target: T18, 4H3172-bA
T18 chain: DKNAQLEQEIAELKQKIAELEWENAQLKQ

4H850-bA = target: T19, 4H850-bA
T19 chain: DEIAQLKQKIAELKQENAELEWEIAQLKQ

4H3974-bA = target: T20, 4H3974-bA
T20 chain: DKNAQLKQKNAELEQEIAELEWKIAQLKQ

4H730-bH = target: T21, 4H730-bH
T21 chain: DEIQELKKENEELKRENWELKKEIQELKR

4H3041-bH = target: T22, 4H3041-bH
T22 chain: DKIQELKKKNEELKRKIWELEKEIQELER

4H2143-bH = target: T23, 4H2143-bH
T23 chain: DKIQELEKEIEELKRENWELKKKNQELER

4H40-bH = target: T24, 4H40-bH
T24 chain: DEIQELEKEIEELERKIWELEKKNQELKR

4H2473-bH = target: T25, 4H2473-bH
T25 chain: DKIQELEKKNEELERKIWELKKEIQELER

4H477-bH = target: T26, 4H477-bH
T26 chain: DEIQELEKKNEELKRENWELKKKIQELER

4H3364-bH = target: T27, 4H3364-bH
T27 chain: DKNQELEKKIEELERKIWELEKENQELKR

4H949-bH = target: T28, 4H949-bH
T28 chain: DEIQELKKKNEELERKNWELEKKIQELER

4H2588-bH = target: T29, 4H2588-bH
T29 chain: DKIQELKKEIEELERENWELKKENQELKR

4H741-bH = target: T30, 4H741-bH
T30 chain: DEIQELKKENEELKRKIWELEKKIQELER

4H492-bH = target: T31, 4H492-bH
T31 chain: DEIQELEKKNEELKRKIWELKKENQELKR

4H4001-bN = target: T32, 4H4001-bN
T32 chain: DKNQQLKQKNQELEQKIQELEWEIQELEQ

4H2859-bH = target: T33, 4H2859-bH
T33 chain: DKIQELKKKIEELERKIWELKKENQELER

4H2518-bH = target: T34, 4H2518-bH
T34 chain: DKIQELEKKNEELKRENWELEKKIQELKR

4H2444-bH = target: T35, 4H2444-bH
T35 chain: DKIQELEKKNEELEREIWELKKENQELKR

4H2915-bH = target: T36, 4H2915-bH
T36 chain: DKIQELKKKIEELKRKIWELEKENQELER

4H319-bH = target: T37, 4H319-bH
T37 chain: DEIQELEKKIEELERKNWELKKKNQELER

4H2931-bH = target: T38, 4H2931-bH
T38 chain: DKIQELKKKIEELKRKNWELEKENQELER

4H348-bH = target: T39, 4H348-bH
T39 chain: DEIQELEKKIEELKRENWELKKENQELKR

4H2717-bH = target: T40, 4H2717-bH
T40 chain: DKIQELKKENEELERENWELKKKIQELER

4H2585-bH = target: T41, 4H2585-bH
T41 chain: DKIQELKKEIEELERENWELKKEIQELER

4H2162-bH = target: T42, 4H2162-bH
T42 chain: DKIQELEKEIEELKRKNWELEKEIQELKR

4H2839-bH = target: T43, 4H2839-bH
T43 chain: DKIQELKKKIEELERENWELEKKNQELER

4H235-bH = target: T44, 4H235-bH
T44 chain: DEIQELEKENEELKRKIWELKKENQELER

4H2692-bH = target: T45, 4H2692-bH
T45 chain: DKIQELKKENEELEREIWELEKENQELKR

4H2233-bH = target: T46, 4H2233-bH
T46 chain: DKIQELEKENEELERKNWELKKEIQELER

4H264-bH = target: T47, 4H264-bH
T47 chain: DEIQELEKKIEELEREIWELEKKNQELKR

4H3381-bH = target: T48, 4H3381-bH
T48 chain: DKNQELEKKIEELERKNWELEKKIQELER

4H2438-bH = target: T49, 4H2438-bH
T49 chain: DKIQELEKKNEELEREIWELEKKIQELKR

4H349-bH = target: T50, 4H349-bH
T50 chain: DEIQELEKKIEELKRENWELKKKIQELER

4H796-bH = target: T51, 4H796-bH
T51 chain: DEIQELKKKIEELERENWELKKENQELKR

4H932-bH = target: T52, 4H932-bH
T52 chain: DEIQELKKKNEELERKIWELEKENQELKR

4H2223-bH = target: T53, 4H2223-bH
T53 chain: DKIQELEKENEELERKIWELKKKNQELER

4H2760-bH = target: T54, 4H2760-bH
T54 chain: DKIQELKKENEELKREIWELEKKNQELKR

4H2503-bH = target: T55, 4H2503-bH
T55 chain: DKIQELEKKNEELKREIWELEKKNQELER

4H56-bH = target: T56, 4H56-bH
T56 chain: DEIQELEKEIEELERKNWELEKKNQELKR

4H3277-bH = target: T57, 4H3277-bH
T57 chain: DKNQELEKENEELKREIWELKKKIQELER

4H3057-bH = target: T58, 4H3057-bH
T58 chain: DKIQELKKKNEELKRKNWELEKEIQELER

4H2253-bH = target: T59, 4H2253-bH
T59 chain: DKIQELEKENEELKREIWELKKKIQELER

B1: 4H1393-bA (peptide)
chain: DENAQLEQKIAELKQKNAELEWEIAQLEQ
interaction score (4H1985-bA): -1.7 | interaction score (4H584-bA): -1.22 | interaction score (4H1804-bA): -1.14 | interaction score (4H3297-bH): -0.857 | interaction score (4H570-bA): -0.941 | interaction score (4H3129-bA): -0.0989 | interaction score (4H3817-bA): -1.23 | interaction score (4H906-bA): -1.12 | interaction score (4H3631-bA): -0.847 | interaction score (4H1629-bA): -1.57 | interaction score (4H3638-bA): 1.8 | interaction score (4H619-bA): -1.63 | interaction score (4H1449-bA): -1.31 | interaction score (4H754-bA): -1.58 | interaction score (4H3414-bA): 0.166 | interaction score (4H1393-bA): -1.08 | interaction score (4H1710-bA): -1.72 | interaction score (4H3172-bA): -1.3 | interaction score (4H850-bA): -0.951 | interaction score (4H3974-bA): -0.626

B2: 4H2143-bH (peptide)
chain: DKIQELEKEIEELKRENWELKKKNQELER
interaction score (4H730-bH): -0.835 | interaction score (4H3041-bH): -0.203 | interaction score (4H2143-bH): 0.693 | interaction score (4H40-bH): 1 | interaction score (4H2473-bH): -0.279 | interaction score (4H477-bH): -0.0383 | interaction score (4H3297-bH): -0.15 | interaction score (4H3364-bH): 0.347 | interaction score (4H949-bH): -0.954 | interaction score (4H2588-bH): -0.874 | interaction score (4H741-bH): 0.515 | interaction score (4H492-bH): -0.638 | interaction score (4H4001-bN): -1.45 | interaction score (4H2859-bH): -0.954 | interaction score (4H2518-bH): 0.15 | interaction score (4H2444-bH): -0.824 | interaction score (4H2915-bH): -0.577 | interaction score (4H319-bH): -1.46 | interaction score (4H2931-bH): 0.0986 | interaction score (4H348-bH): 0.059 | interaction score (4H2717-bH): -0.549 | interaction score (4H2585-bH): -1.12 | interaction score (4H2162-bH): 0.12 | interaction score (4H2839-bH): 1.24 | interaction score (4H235-bH): -0.618 | interaction score (4H2692-bH): -0.348 | interaction score (4H2233-bH): 0.334 | interaction score (4H264-bH): 0.605 | interaction score (4H3381-bH): 0.106 | interaction score (4H2438-bH): -0.916 | interaction score (4H754-bA): -0.871 | interaction score (4H349-bH): -0.148 | interaction score (4H796-bH): -1.45 | interaction score (4H932-bH): -0.164 | interaction score (4H2223-bH): -0.434 | interaction score (4H2760-bH): -0.0706 | interaction score (4H2503-bH): -1.13 | interaction score (4H56-bH): 0.127 | interaction score (4H3277-bH): -0.719 | interaction score (4H3057-bH): 0.0434 | interaction score (4H2253-bH): -1.13
